Results taken from patent publication US20120213804A1 (Pfizer, published 2012).
Like-named read-outs stand apart in the source and are kept apart here.

Key:
Fc-CD22 [1] = target: Fc-CD22 (UniProt P20273); experiment: BIACORE, Fc-CD22 on CM5 chip, no G5/44
Fc-CD22 [2] = target: Fc-CD22 (UniProt P20273); experiment: BIACORE, Fc-CD22 on CM5 chip; competitor G5/44 pre-bound
[3] = target: T1, CD33 on CD22- CD33+ HL-60 leukemia cells (human, UniProt P20138 18-364); experiment: flow cytometry
T1 construct: whole, on cells
Source text: Purified human polyclonal IgG1 and IgG4 were also used as negative controls.

CD22mFc [4] = target: T2, CD22mFc (UniProt P20273 20-687, limits assumed); experiment: SPR (BIACORE 2000), CD22mFc on CM5 chip, global 1:1 Langmuir fit with mass transfer
T2 construct: also called CD22-mFc constructs; not shown: mouse Fc (captured by anti-mouse Fc)
Procedure: (§1) Biosensor analyses were carried out using a BIACORE™ 2000 (BIAcore AB, Uppsala, Sweden). CD22mFc was covalently immobilized on the N-hydroxysuccinimide-activated carboxymethyl dextran-coated biosensor chip (CM5) using a standard amine-coupling chemistry at a protein density of approximately 2000 resonance units. […] After the binding phase, dissociation of the bound antibody was monitored by washing the chip with the HBS buffer over a 15 minute period. The antigenic surface was regenerated by washing the Biosensor chip with 15 μl of the regeneration buffer (10 mM NaOH and 200 mM NaCl) for 30 seconds, followed by a stabilization time of 2 minutes before the next cycle. Kinetic constants were calculated by nonlinear least square regression analysis using a 1:1 Langmuir binding curve fitting model and BIAevaluation program (version 3.0, BIAcore).

[5] = target: T3, human CD22 on the surface of B cells (Ramos, RL, Daudi, Raji lymphoma cells; B cell lymphoma tissue) (human, UniProt P20273 20-847); experiment: cell-based or functional assay
[6] = target: T3, human CD22 on the surface of B cells …; experiment: cell-based or functional assay; remark: listed apart in the source
[7] = target: T3, human CD22 on the surface of B cells …; experiment: cell-based or functional assay; remark: listed apart in the source
CD22mFc [8] = target: T2, CD22mFc; experiment: Biacore 2000; CD22mFc captured via immobilized anti-mouse Fc, antibody in the soluble phase; column head '~KD nM'
Procedure: (§2) All binding measurements were performed in the BIACORE™ 2000 instrument (Pharmacia Biosensor AB, Uppsala, Sweden). The assay was performed by capture of CD22mFc via the immobilized anti-mouse Fc. The antibody was in the soluble phase. Samples, standard, and controls (50 μl) were injected over immobilized anti-mouse Fc followed by antibody in the soluble phase. After each cycle, the surface was regenerated with 50 μl of 40 mM HCl at 30 μl/min. The kinetic analysis was performed using the BIAevaluation 3.1 software (Pharmacia).

CD22mFc [9] = target: T2, CD22mFc; experiment: BIACORE 2000, CD22mFc captured via anti-mouse Fc
Procedure: as §2

CD22mFc [10] = target: T2, CD22mFc; experiment: SPR (BIACORE 2000), CD22mFc immobilized on CM5 chip
Procedure: as §1

T1 sequence (P20138 18-364): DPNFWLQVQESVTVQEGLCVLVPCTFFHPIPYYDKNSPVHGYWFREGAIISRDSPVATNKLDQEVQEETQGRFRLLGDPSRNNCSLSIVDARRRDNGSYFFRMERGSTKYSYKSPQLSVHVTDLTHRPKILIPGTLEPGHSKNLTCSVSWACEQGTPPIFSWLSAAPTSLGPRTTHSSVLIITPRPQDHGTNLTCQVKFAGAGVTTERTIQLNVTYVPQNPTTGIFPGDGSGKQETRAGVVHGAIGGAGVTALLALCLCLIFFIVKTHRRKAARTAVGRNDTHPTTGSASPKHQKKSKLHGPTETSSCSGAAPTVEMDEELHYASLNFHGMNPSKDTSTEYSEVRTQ

anti-CD22 antibody BLCAM, HD239 (Santa Cruz Biotech)
Binding of 2nd mAb without G544 adjusted for background (RU) (Fc-CD22 [1]): 19.3 RU | Inhibition by G544 (%) (Fc-CD22 [2]): 91% | Response 2 with G544 (combined response, RU) (Fc-CD22 [2]): 629 RU | Response 3 (Response 2-1) (RU) (Fc-CD22 [2]): -81.8 RU | Response 3 adjusted for OFF rate of G544 (RU) (Fc-CD22 [2]): 1.7 RU

anti-CD22 antibody To 15 (Dako Corp)
Binding of 2nd mAb without G544 adjusted for background (RU) (Fc-CD22 [1]): 615 RU | Inhibition by G544 (%) (Fc-CD22 [2]): 7% | Response 2 with G544 (combined response, RU) (Fc-CD22 [2]): 1160 RU | Response 3 (Response 2-1) (RU) (Fc-CD22 [2]): 487 RU | Response 3 adjusted for OFF rate of G544 (RU) (Fc-CD22 [2]): 570 RU

anti-CD22 antibody SHCL-1, Leu 14 (Becton Dickinson)
Binding of 2nd mAb without G544 adjusted for background (RU) (Fc-CD22 [1]): 29.3 RU | Inhibition by G544 (%) (Fc-CD22 [2]): 69% | Response 2 with G544 (combined response, RU) (Fc-CD22 [2]): 580 RU | Response 3 (Response 2-1) (RU) (Fc-CD22 [2]): -74.5 RU | Response 3 adjusted for OFF rate of G544 (RU) (Fc-CD22 [2]): 9 RU

anti-CD19 antibody BU12 (Celltech)
Inhibition by G544 (%) (Fc-CD22 [2]): 0% | Response 2 with G544 (combined response, RU) (Fc-CD22 [2]): 603 RU | Response 3 (Response 2-1) (RU) (Fc-CD22 [2]): -83.5 RU | Response 3 adjusted for OFF rate of G544 (RU) (Fc-CD22 [2]): 0 RU

anti-CD22 antibody 4 KB128 (Dako Corp)
Binding of 2nd mAb without G544 adjusted for background (RU) (Fc-CD22 [1]): 739 RU | Inhibition by G544 (%) (Fc-CD22 [2]): 0% | Response 2 with G544 (combined response, RU) (Fc-CD22 [2]): 1340 RU | Response 3 (Response 2-1) (RU) (Fc-CD22 [2]): 652 RU | Response 3 adjusted for OFF rate of G544 (RU) (Fc-CD22 [2]): 736 RU

B1: CMC-544 (G5/44-NAc-gamma-calicheamicin DMH AcBut conjugate), preparation not specified (antibody, human IgG4 S228P, kappa, V domains shown)
VH: EVQLVQSGAEVKKPGASVKVSCKASGYRFTNYWIHWVRQAPGQGLEWIGGINPGNNYATYRRKFQGRVTMTADTSTSTVYMELSSLRSEDTAVYYCTREGYGNYGAWFAYWGQGTLVTVSS
VL: DVQVTQSPSSLSASVGDRVTITCRSSQSLANSYGNTFLSWYLHKPGKAPQLLIYGISNRFSGVPDRFSGSGSGTDFTLTISSLQPEDFATYYCLQGTHQPYTFGQGTKVEIKR
modifications: NAc-gamma calicheamicin DMH AcBut conjugated to the antibody; chain and residues not stated
notes: also called NAc-Gamma Calicheamicin DMH AcBut-G5/44 immunoconjugate
binding result [3]: no binding | Kd (CD22mFc [4]): 0.2 nM | killing of CD22+ target cells relative to the unconjugated drug [5]: ≥ 10 times

B2: CMC-544, CMA-676 process, loading 35 µg/mg (antibody, human IgG4 S228P, kappa, V domains shown)
VH: EVQLVQSGAEVKKPGASVKVSCKASGYRFTNYWIHWVRQAPGQGLEWIGGINPGNNYATYRRKFQGRVTMTADTSTSTVYMELSSLRSEDTAVYYCTREGYGNYGAWFAYWGQGTLVTVSS
VL: DVQVTQSPSSLSASVGDRVTITCRSSQSLANSYGNTFLSWYLHKPGKAPQLLIYGISNRFSGVPDRFSGSGSGTDFTLTISSLQPEDFATYYCLQGTHQPYTFGQGTKVEIKR
modifications: NAc-gamma calicheamicin DMH AcBut conjugated, loading 35 µg/mg; chain and residues not stated
growth inhibition IC50, Daudi #1 [6]: 2.29 µg/mL of antibody | growth inhibition IC50, RL #1 [6]: 0.86 µg/mL of antibody | growth inhibition IC50, RL #2 [6]: 1.14 µg/mL of antibody | growth inhibition IC50, Raji #2 [6]: 14.9 µg/mL of antibody | growth inhibition IC50, Ramos #1 [6]: 3.71 µg/mL of antibody | growth inhibition IC50, Daudi #1 [7]: 80 pM of calicheamicin | growth inhibition IC50, RL #1 [7]: 30 pM of calicheamicin | growth inhibition IC50, RL #2 [7]: 40 pM of calicheamicin | growth inhibition IC50, Raji #2 [7]: 520 pM of calicheamicin | growth inhibition IC50, Ramos #1 [7]: 130 pM of calicheamicin

B3: CMC-544, CMC-544 process, loading 65 µg/mg (antibody, human IgG4 S228P, kappa, V domains shown)
VH: EVQLVQSGAEVKKPGASVKVSCKASGYRFTNYWIHWVRQAPGQGLEWIGGINPGNNYATYRRKFQGRVTMTADTSTSTVYMELSSLRSEDTAVYYCTREGYGNYGAWFAYWGQGTLVTVSS
VL: DVQVTQSPSSLSASVGDRVTITCRSSQSLANSYGNTFLSWYLHKPGKAPQLLIYGISNRFSGVPDRFSGSGSGTDFTLTISSLQPEDFATYYCLQGTHQPYTFGQGTKVEIKR
modifications: NAc-gamma calicheamicin DMH AcBut conjugated, loading 65 µg/mg; chain and residues not stated
growth inhibition IC50, Daudi #1 [6]: 0.32 µg/mL of antibody | growth inhibition IC50, RL #1 [6]: 0.09 µg/mL of antibody | growth inhibition IC50, RL #2 [6]: 0.18 µg/mL of antibody | growth inhibition IC50, Raji #1 [6]: 7.69 µg/mL of antibody | growth inhibition IC50, Raji #2 [6]: 8.62 µg/mL of antibody | growth inhibition IC50, Ramos #1 [6]: 3.08 µg/mL of antibody | growth inhibition IC50, Ramos #2 [6]: 4 µg/mL of antibody | growth inhibition IC50, Daudi #1 [7]: 21 pM of calicheamicin | growth inhibition IC50, RL #1 [7]: 6 pM of calicheamicin | growth inhibition IC50, RL #2 [7]: 12 pM of calicheamicin | growth inhibition IC50, Raji #1 [7]: 500 pM of calicheamicin | growth inhibition IC50, Raji #2 [7]: 560 pM of calicheamicin | growth inhibition IC50, Ramos #1 [7]: 200 pM of calicheamicin | growth inhibition IC50, Ramos #2 [7]: 260 pM of calicheamicin

B4: chimeric 5/44 variant K60R (antibody, V domains shown)
VH: EVQLQQSGTVLARPGASVKMSCKASGYRFTNYWIHWVKQRPGQGLEWIGGINPGNNYTTYRRNLKGKATLTAVTSASTAYMDLSSLTSEDSAVYYCTREGYGNYGAWFAYWGQGTLVTVSS
VL: DVVVTQTPLSLPVSFGDQVSISCRSSQSLANSYGNTFLSWYLHKPGQSPQLLIYGISNRFSGVPDRFTGSGSGTDFTLKISTIKPEDLGMYYCLQGTHQPYTFGGGTKLEIKR
notes: Human kappa / human gamma-4 constant regions; The position is as printed
Kd (CD22mFc [8]): ~0.2 nM

B5: chimeric 5/44 variant N55Q (antibody, V domains shown)
VH: EVQLQQSGTVLARPGASVKMSCKASGYRFTNYWIHWVKQRPGQGLEWIGGINPGNQYTTYKRNLKGKATLTAVTSASTAYMDLSSLTSEDSAVYYCTREGYGNYGAWFAYWGQGTLVTVSS
VL: DVVVTQTPLSLPVSFGDQVSISCRSSQSLANSYGNTFLSWYLHKPGQSPQLLIYGISNRFSGVPDRFTGSGSGTDFTLKISTIKPEDLGMYYCLQGTHQPYTFGGGTKLEIKR
notes: as for B4
Kd (CD22mFc [8]): ~0.3 nM

B6: chimeric 5/44 variant T57A (antibody, V domains shown)
VH: EVQLQQSGTVLARPGASVKMSCKASGYRFTNYWIHWVKQRPGQGLEWIGGINPGNNYATYKRNLKGKATLTAVTSASTAYMDLSSLTSEDSAVYYCTREGYGNYGAWFAYWGQGTLVTVSS
VL: DVVVTQTPLSLPVSFGDQVSISCRSSQSLANSYGNTFLSWYLHKPGQSPQLLIYGISNRFSGVPDRFTGSGSGTDFTLKISTIKPEDLGMYYCLQGTHQPYTFGGGTKLEIKR
notes: Human kappa / human gamma-4 constant regions; The position is as printed (CDR-H2, Kabat definition); also called construct T57A
Kd (CD22mFc [8]): ~0.07 nM | affinity improvement compared to the chimeric 5/44 (fold) (CD22mFc [9]): ~5 fold

B7: humanized anti-CD22 antibody G5/44 (antibody, human IgG4 S228P, kappa, V domains shown)
VH: EVQLVQSGAEVKKPGASVKVSCKASGYRFTNYWIHWVRQAPGQGLEWIGGINPGNNYATYRRKFQGRVTMTADTSTSTVYMELSSLRSEDTAVYYCTREGYGNYGAWFAYWGQGTLVTVSS
VL: DVQVTQSPSSLSASVGDRVTITCRSSQSLANSYGNTFLSWYLHKPGKAPQLLIYGISNRFSGVPDRFSGSGSGTDFTLTISSLQPEDFATYYCLQGTHQPYTFGQGTKVEIKR
notes: also called Humanized G5/44; gL1gH7
binding result [3]: no binding | Kd (CD22mFc [4]): 0.235 nM | Ka (CD22mFc [10]): 7.9e+09 M⁻¹ | Kd (CD22mFc [10]): 0.13 nM | koff (CD22mFc [10]): 2.8e-05 s⁻¹ | kon (CD22mFc [10]): 220000 M⁻¹ s⁻¹

B8: CMC-544 (21 µg/mg) (CMA-676 procedure) (antibody, human IgG4 S228P, kappa, V domains shown)
VH: EVQLVQSGAEVKKPGASVKVSCKASGYRFTNYWIHWVRQAPGQGLEWIGGINPGNNYATYRRKFQGRVTMTADTSTSTVYMELSSLRSEDTAVYYCTREGYGNYGAWFAYWGQGTLVTVSS
VL: DVQVTQSPSSLSASVGDRVTITCRSSQSLANSYGNTFLSWYLHKPGKAPQLLIYGISNRFSGVPDRFSGSGSGTDFTLTISSLQPEDFATYYCLQGTHQPYTFGQGTKVEIKR
modifications: NAc-gamma calicheamicin DMH AcBut conjugated, loading 21 µg/mg; chain and residues not stated
Ka (CD22mFc [10]): 8.1e+09 M⁻¹ | Kd (CD22mFc [10]): 0.12 nM | koff (CD22mFc [10]): 6.1e-05 s⁻¹ | kon (CD22mFc [10]): 490000 M⁻¹ s⁻¹

B9: CMC-544 (87 µg/mg) (CMC-544 procedure) (antibody, human IgG4 S228P, kappa, V domains shown)
VH: EVQLVQSGAEVKKPGASVKVSCKASGYRFTNYWIHWVRQAPGQGLEWIGGINPGNNYATYRRKFQGRVTMTADTSTSTVYMELSSLRSEDTAVYYCTREGYGNYGAWFAYWGQGTLVTVSS
VL: DVQVTQSPSSLSASVGDRVTITCRSSQSLANSYGNTFLSWYLHKPGKAPQLLIYGISNRFSGVPDRFSGSGSGTDFTLTISSLQPEDFATYYCLQGTHQPYTFGQGTKVEIKR
modifications: NAc-gamma calicheamicin DMH AcBut conjugated, loading 87 µg/mg; chain and residues not stated
Ka (CD22mFc [10]): 6.6e+09 M⁻¹ | Kd (CD22mFc [10]): 0.15 nM | koff (CD22mFc [10]): 6.9e-05 s⁻¹ | kon (CD22mFc [10]): 460000 M⁻¹ s⁻¹
